{
  "source": "patent US20220042033A1",
  "about": "“COMPOSITION AND METHOD FOR CONFERRING AND/OR ENHANCING TOLERANCE AGAINST HERBICIDES BY USING VARIANTS OF PPO” (FarmHannong Co., Ltd., priority 2017, published 2022)",
  "molecules": {"B1": {"name": "A170L: MxPPO (SEQ ID NO: 3) variant (protein)", "chain": "MHHMPRTTGMNVAVVGGGISGLAVAHHLRSRGTDAVLLESSARLGGAVGTHALAGYLVEQGPNSFLDREPATRALAAALNLEGRIRAADPAAKRRYVYTRGRLRSVPASPPAFLASDILPLGARLRVAGELFSRRAPEGVDESLAAFGRRHLGHRATQVLLDAVQTGIYLGDVEQLSVAATFPMLVKMEREHRSLILGAIRAQKAQRQAALPAGTAPKLSGALSTFDGGLQVLIDALAASLGDAAHVGARVEGLAREDGGWRLIIEEHGRRAELSVAQVVLAAPAHATAKLLRPLDDALAALVAGIAYAPIAVVHLGFDAGTLPAPDGFGFLVPAEEQRRMLGAIHASTTFPFRAEGGRVLYSCMVGGARQPGLVEQDEDALAALAREELKALAGVTARPSFTRVFRWPLGIPQYNLGHLERVAAIDAALQRLPGLHLIGNAYKGVGLNDCIRNAAQLADALVAGNTSHAP", "modifications": "Synthetic (Protoporphyrinogen IX oxidase (MxPPO) of Myxococcus xanthus)"}, "B2": {"name": "A170C + M365I: MxPPO (SEQ ID NO: 3) variant (protein)", "chain": "B1 chain with L170C, M365I", "modifications": "Synthetic (Protoporphyrinogen IX oxidase (MxPPO) of Myxococcus xanthus)"}, "B3": {"name": "R95A + M365V: MxPPO (SEQ ID NO: 3) variant (protein)", "chain": "B1 chain with R95A, L170A, M365V", "modifications": "Synthetic (Protoporphyrinogen IX oxidase (MxPPO) of Myxococcus xanthus)"}, "B4": {"name": "I311M: MxPPO (SEQ ID NO: 3) variant (protein)", "chain": "B1 chain with L170A, I311M", "modifications": "Synthetic (Protoporphyrinogen IX oxidase (MxPPO) of Myxococcus xanthus)"}, "B5": {"name": "R95A + M365I: MxPPO (SEQ ID NO: 3) variant (protein)", "chain": "B1 chain with R95A, L170A, M365I", "modifications": "Synthetic (Protoporphyrinogen IX oxidase (MxPPO) of Myxococcus xanthus)"}, "B6": {"name": "A170C + M365V: MxPPO (SEQ ID NO: 3) variant (protein)", "chain": "B1 chain with L170C, M365V", "modifications": "Synthetic (Protoporphyrinogen IX oxidase (MxPPO) of Myxococcus xanthus)"}, "B7": {"name": "M365T: MxPPO (SEQ ID NO: 3) variant (protein)", "chain": "B1 chain with L170A, M365T", "modifications": "Synthetic (Protoporphyrinogen IX oxidase (MxPPO) of Myxococcus xanthus)"}, "B8": {"name": "R95A: MxPPO (SEQ ID NO: 3) variant (protein)", "chain": "B1 chain with R95A, L170A", "modifications": "Synthetic (Protoporphyrinogen IX oxidase (MxPPO) of Myxococcus xanthus)"}},
  "key": {"[1]": {"tested_on": "MxPPO", "assay": "PPO enzyme activity of purified MBP-fused MxPPO wild type and variants", "format": "biochemical, Myxococcus xanthus", "details": "PPO enzyme activity of purified MxPPO protein, relative to wild type", "protocol": "Thus, PPO proteins of wild type and variants were expressed as fused to MBP and were used for experiments.\nThe following process for purification of PPO protein was performed in a 4° C. cold room. […] The column was washed with 3 column volumes of buffer and the presence of protein in the washing solution was examined. When the protein was no longer detected, the washing procedure was terminated. Then, the MBP-PPO protein was eluted with approximately 2 column volumes of buffer containing 20 mM maltose. The protein concentration of each eluent was determined and the elution was stopped when the protein was no longer detected. Ten microliter of each fraction was investigated for protein quantification and SDS-PAGE analysis. The highly pure fractions of PPO protein variants were used for the enzyme assay.\nSince protoporphyrinogen IX, a substrate of PPO protein, was not commercially available, it was chemically synthesized in the laboratory. Overall process was performed in dark under nitrogen stream. […] of protoporphyrin IX was dissolved in 20 ml of 20% (v/v) EtOH, and stirred under dark condition for 30 minutes. The obtained protoporphyrin IX solution was put into a 15 ml screw tube in an amount of 800 μl, and flushed with nitrogen gas for 5 minutes. To this, 1.5 g of sodium amalgam was added and vigorously shaken for 2 minutes. The lid was opened to exhaust hydrogen gas in the tube. Thereafter, the lid was closed and incubated for 3 minutes. The protoporphyrinogen IX solution was filtered using syringe and cellulose membrane filter. To 600 μl of the obtained protoporphyrinogen IX solution, approximately 300 μl of 2M MOPS [3-(N-morpholino) propanesulfonic acid] was added to adjust pH to 8.0. To determine the enzyme activity of PPO protein, a reaction mixture was prepared with the following composition (based on 10 ml): 50 mM Tris-Cl (pH 8.0); 50 mM NaCl; 0.04% (v/v) Tween 20; 40 mM glucose (0.072 g); 5 units glucose oxidase (16.6 mg); and 10 units catalase (1 μl).\nHundred and eighty microliters of a reaction mixture […] were placed in 96 well plates and 20 μl of purified PPO proteins were added. After 50 μl of the mineral oil was layered, the reaction was initiated by adding the substrate, protoporphyrinogen IX solution, to a final concentration of 50 μM. The reaction proceeded at room temperature for 30 min and the fluorescence of protoporphyrin IX was measured using Microplate reader (Sense, Hidex) (excitation: 405 nm; emission: 633 nm). To calculate the PPO enzyme activity, the protoporphyrinogen IX solution was kept open in the air overnight to oxidize the solution. To this, 2.7 N HCl was added, and the absorbance at 408 nm was measured. A standard curve was generated using standard protoporphyrin IX, and PPO activity was measured by calibration of protoporphyrin IX using the standard curve of protoporphyrin IX.\nActivities of variants were presented relatively compared to that of wild type."}, "[2]": {"tested_on": "MxPPO", "assay": "Herbicide tolerance test of MxPPO wild type and variants in PPO-deficient E. coli BT3(ΔPPO), growth on herbicide-containing LB agar", "format": "cell-based, Myxococcus xanthus", "details": "relative to MxPPO WT, light; for Herbicide tolerance, saflufenacil: up to 200 μM (FIG. 13); for Herbicide tolerance, sulfentrazone: up to 1000 μM (FIGS. 18-20)", "protocol": "Then, the extent of tolerance was evaluated."}},
  "note": "Where a chain is given by its changes, count along the chain named. Names may count otherwise.",
  "data": [
    {"molecule": "B1", "values": [
      {"measurement": "Activity (%)", "setting": "[1]", "result": 40, "unit": "%"},
      {"measurement": "Herbicide tolerance, flumioxazin", "setting": "[2]; up to 100 μM (FIG. 13)", "result": "++ (10-99 fold higher tolerance)"},
      {"measurement": "Herbicide tolerance, saflufenacil", "setting": "[2]", "result": "++ (10-99 fold higher tolerance)"}
    ]},
    {"molecule": "B2", "values": [
      {"measurement": "Activity (%)", "setting": "[1]", "result": 78, "unit": "%"},
      {"measurement": "Herbicide tolerance, flumioxazin", "setting": "[2]; up to 400 μM (FIGS. 15-17)", "result": "+ (1-9 fold higher tolerance)"},
      {"measurement": "Herbicide tolerance, sulfentrazone", "setting": "[2]", "result": "+ (1-9 fold higher tolerance)"}
    ]},
    {"molecule": "B3", "values": [
      {"measurement": "Activity (%)", "setting": "[1]", "result": 40, "unit": "%"}
    ]},
    {"molecule": "B4", "values": [
      {"measurement": "Activity (%)", "setting": "[1]", "result": 87, "unit": "%"},
      {"measurement": "Herbicide tolerance, flumioxazin", "setting": "[2]; up to 100 μM (FIG. 13)", "result": "++ (10-99 fold higher tolerance)"},
      {"measurement": "Herbicide tolerance, saflufenacil", "setting": "[2]", "result": "++ (10-99 fold higher tolerance)"}
    ]},
    {"molecule": "B5", "values": [
      {"measurement": "Activity (%)", "setting": "[1]", "result": 42, "unit": "%"}
    ]},
    {"molecule": "B6", "values": [
      {"measurement": "Activity (%)", "setting": "[1]", "result": 71, "unit": "%"},
      {"measurement": "Herbicide tolerance, tiafenacil", "setting": "[2]; 2000 μM (FIG. 14)", "result": "+ (1-9 fold higher tolerance)"},
      {"measurement": "Herbicide tolerance, flumioxazin", "setting": "[2]; up to 400 μM (FIGS. 15-17)", "result": "++ (10-99 fold higher tolerance)"},
      {"measurement": "Herbicide tolerance, sulfentrazone", "setting": "[2]", "result": "+ (1-9 fold higher tolerance)"}
    ]},
    {"molecule": "B7", "values": [
      {"measurement": "Activity (%)", "setting": "[1]", "result": 52, "unit": "%"}
    ]},
    {"molecule": "B8", "values": [
      {"measurement": "Activity (%)", "setting": "[1]", "result": 43, "unit": "%"}
    ]}
  ]
}
